Reference: publication PMC9841416

The substances below were run against NTH-RNase E D346N D346N (Escherichia coli (K12, P21513-1 in alignment)) (UniProt P21513) (assay: EMSA). Conditions: 25 mM bis-Tris propane pH 8.3, 100 mM KCl, 15 mM CaCl2, 0.1% (v/v) Triton X-100, 1 mM DTT, 20% (v/v) glycerol, 37 C 20 min; 1% agarose gel in 1x TBE.

Row | Substance | Kd [nM]
1 | glnW-metU segment | 27
2 | glnW-tRNA (no flanking single-stranded regions) | 56
3 | metU-tRNA with 5' and 3' single-stranded regions | 19
